Experimental findings from US20220017611A1 are described below.

First the molecules themselves.
B1: mCherry-VHH E4-1 (VHH, not shown: large carriers)
VHH: EVQLQASGGGFVQPGGSLRLSCAASGATSTFDGMGWFRQAPGKEREFVSAISYEQGSYTYYADSVKGRFTISRDNSKNTVYLQMNSLRAEDTATYYCAPAYEGDLYAFDSYWGQGTQVTVSS
B2: mCherry-VHH Mut14 (VHH, not shown: large carriers)
VHH: B1 VHH with G10V, P14S, T30I, E54G, T79M, W112G, G113E
B3: mCherry-VHH Z70 (VHH, not shown: large carriers)
VHH: B1 VHH with G10V, P14S, T79M, W112G
B4: mCherry-VHH Mut3 (VHH, not shown: large carriers)
VHH: B1 VHH with G10V, P14S, R45K, T79M, W112G
B5: mCherry-VHH Mut20 (VHH, not shown: large carriers)
VHH: B1 VHH with G10V, P14S, R45K, T79M, W112G, G113E
B6: mCherry-VHH Mut1 (VHH, not shown: large carriers)
VHH: B1 VHH with G10V, P14S, T79M, W112G, G113E
B7: mCherry-VHH Mut5 (VHH, not shown: large carriers)
VHH: B1 VHH with G10V, P14S, T79M, T94S, W112G
B8: mCherry-VHH Mut12 (VHH, not shown: large carriers)
VHH: AEVQLQASGGVFVQSGGSLRLCCAASGATSTFDGMGWFRQAPGKEREFVSAISYEQGSYTYYADSVKGRFTISRDNSKNMVYLQMNSLRAEDTATYYCAPAYEGDLYAFDSYGEQGTQVTVSS

Residue numbers refer to the chain shown, from its start.

Chain of Tau RD (MTBD) P301S fused to CFP or YFP, in HEK293 Tau RD P301S FRET Biosensor cells (P10636 561-689 P618S): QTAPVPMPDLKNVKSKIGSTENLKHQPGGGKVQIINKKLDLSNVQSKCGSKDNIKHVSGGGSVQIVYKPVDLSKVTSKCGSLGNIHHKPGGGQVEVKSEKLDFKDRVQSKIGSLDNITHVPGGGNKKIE

This assay addresses Tau RD (MTBD) P301S fused to CFP or YFP, in HEK293 Tau RD P301S FRET Biosensor cells (UniProt P10636). Nature of the assay: cell-based or functional assay.
B1 returned a mCherry-gated FRET positive cells after MTBD seeds of 15.2% and a seeding inhibition against mCherry-VHH F8-2 of 7.8%.
Molecule B2 came in with a mCherry-gated FRET positive cells after MTBD seeds of 12.7% and a seeding inhibition of 23%.
The molecule B3 came in with a mCherry-gated FRET positive cells after MTBD seeds of 9.9% and a seeding inhibition against mCherry-VHH F8-2 of 40%.
Molecule B4 displayed a mCherry-gated FRET positive cells after MTBD seeds of 8.2% and a seeding inhibition of 50%.
In turn, B5 returned a mCherry-gated FRET positive cells after MTBD seeds of 11.2% and a seeding inhibition of 32%.
B6 yielded a mCherry-gated FRET positive cells after MTBD seeds of 8.2% and a seeding inhibition of 50%.
Take B7: the mCherry-gated FRET positive cells after MTBD seeds turned out to be 12.1% and the seeding inhibition amounted to 27%.
The molecule B8 yielded a mCherry-gated FRET positive cells after MTBD seeds of 8.5% and a seeding inhibition of 48%.
